# Measurements: PMC7374751, “TIMP-3 facilitates binding of target metalloproteinases to the endocytic receptor LRP-1 and promotes scavenging of MMP-1” (Scientific Reports, 2020)
# T1: FLAG-tagged ADAMTS-4 lacking the C-terminal spacer domain (ADAMTS4-2) (UniProt O75173 213-685)
# T1 construct: ADAMTS-4 lacking the C-terminal spacer domain
# T1 sequence (looked up): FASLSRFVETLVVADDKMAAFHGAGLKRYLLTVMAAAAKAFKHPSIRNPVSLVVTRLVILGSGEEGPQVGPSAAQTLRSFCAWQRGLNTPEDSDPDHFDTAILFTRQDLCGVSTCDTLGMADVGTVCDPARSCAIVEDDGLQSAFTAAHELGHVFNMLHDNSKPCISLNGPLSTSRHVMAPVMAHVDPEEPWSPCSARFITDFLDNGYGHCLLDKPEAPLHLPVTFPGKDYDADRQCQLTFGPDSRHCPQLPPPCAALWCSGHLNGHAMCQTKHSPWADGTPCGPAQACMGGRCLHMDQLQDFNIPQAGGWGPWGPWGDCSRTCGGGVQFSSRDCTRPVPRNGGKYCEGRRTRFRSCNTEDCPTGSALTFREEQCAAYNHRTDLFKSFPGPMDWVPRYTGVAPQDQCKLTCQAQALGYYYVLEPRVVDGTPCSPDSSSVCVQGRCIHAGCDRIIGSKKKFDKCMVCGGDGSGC
# T2: catalytic domain of human MMP-1 (MMP-1ΔC) (human, UniProt P03956 100-269)
# T2 construct: catalytic domain of human MMP-1 (lacks the hemopexin domain); pro-domain removed with APMA
# T2 sequence (looked up): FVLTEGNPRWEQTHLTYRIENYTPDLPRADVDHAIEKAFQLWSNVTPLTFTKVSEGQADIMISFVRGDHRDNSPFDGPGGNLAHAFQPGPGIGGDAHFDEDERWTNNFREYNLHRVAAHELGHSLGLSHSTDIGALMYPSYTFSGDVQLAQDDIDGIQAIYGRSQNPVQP
# How the values were obtained:
# Test in all cases: enzyme inhibition kinetics (fluorogenic peptide substrates); apparent Ki; enzyme pre-incubated with TIMP-3 (0.5-100 nM) 1 h at 37 °C, equilibrium rate of substrate hydrolysis; TNC buffer (50 mM Tris-HCl pH 7.5, 150 mM NaCl, 10 mM CaCl2, 0.05% Brij-35, 0.02% NaN3), 37 °C; tight-binding equation
# Settings in all cases: both partners purified
# [1] = biological target: T3, MMP-13 (active enzyme of the inhibition assays) (UniProt P45452 20-471)
# T3 construct: MMP-13 whose activity was measured (0.1 nM)
# [2] = biological target: T1, FLAG-tagged ADAMTS-4 lacking the …
# [3] = biological target: T4, ADAM17 ectodomain (UniProt P78536 215-671)
# T4 construct: ADAM17 ectodomain from R&D Systems; source: bought: R&D Systems
# T4 sequence (P78536 215-671): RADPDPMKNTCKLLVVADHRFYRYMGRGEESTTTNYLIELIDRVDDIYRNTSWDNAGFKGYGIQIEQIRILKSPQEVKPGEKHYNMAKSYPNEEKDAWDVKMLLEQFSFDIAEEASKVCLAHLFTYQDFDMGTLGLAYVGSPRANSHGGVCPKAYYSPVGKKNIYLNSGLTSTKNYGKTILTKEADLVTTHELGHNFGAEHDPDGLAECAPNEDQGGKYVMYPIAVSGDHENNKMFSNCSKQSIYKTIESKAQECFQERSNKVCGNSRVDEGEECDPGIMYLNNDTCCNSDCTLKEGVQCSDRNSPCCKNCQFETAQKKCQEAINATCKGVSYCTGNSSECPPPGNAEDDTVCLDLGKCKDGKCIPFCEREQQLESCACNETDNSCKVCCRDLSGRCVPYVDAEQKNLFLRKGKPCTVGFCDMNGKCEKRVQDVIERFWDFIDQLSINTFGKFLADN
# [4] = biological target: T2, catalytic domain of human MMP-1 …
binder,measurement,setting,value
"FLAG-tagged TIMP-3 (natural protein, UniProt P35625 24-211, looked up, also called T3; [35S]TIMP-3) CTCSPSHPQDAFCNSDIVIRAKVVGKKLVKEGPFGTLVYTIKQMKMYRGFTKMPHVQYIHTEASESLCGLKLEVNKYQYLLTGRVYDGKMYTGLCNFVERWDQLTLSQRKGLNYRYHLGCNCKIKSCYYLPCFVTSKNECLWTDMLSNFGYPGYQSKHYACIRQKGGYCSWYRGWAPPDKSIINATDP",Ki,[1],< 0.5 nM
same,Ki,[2],0.124 nM
same,Ki,[3],3.61 nM
same,Ki,[4],1.86 nM
